Data: the supplement of paper PMC9170038

Tested on: MS2 coat protein
Test: apparent KD of MS2 coat protein; designed switch direction (-1 OFF switch, 1 ON switch): -1; higher = weaker reporter binding
Summary of the method: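 Each step of the titration lasted 0.8–1.5 h at the lowest concentration and 10–20 min at the highest. The protein, SNAP-549-labelled MS2 coat protein, went from 0.7 or 1.5 nM doubling to 3 µM over RNA switches transcribed on Illumina chips by stalled E. coli RNA polymerase. Normalised cluster fluorescence was curve-fitted, and the per-design median over clusters is given as apparent KD.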

[1] = input ligand: microRNA oligo, concentration not stated
[2] = Eterna round: R95, input ligand: FMN 200 uM
[3] = Eterna round: R95, input ligand: microRNA oligo, concentration not stated
[4] = Eterna round: R95, input ligand: none

| Sequence | apparent KD of MS2 coat protein [1] [nM] | apparent KD of MS2 coat protein (input ligand: FMN 200 uM) [nM] | apparent KD of MS2 coat protein (input ligand: none) [nM] | further results |
| --- | --- | --- | --- | --- |
| UUAGUUUUGCAAGGAUAUGUUUAUUUAUAGUUGCCUCUUACAUGAGGAUCACCCAUGUUUUACUUACAGAAGGUGCAAUGAUUU [JR_ExcNG2_Sub034] (Eterna round: R96, puzzle: Exclusion NG 2) | 138 |  |  |  |
| UUAUACGGUGAGGAUAUCUUCACUAAAGUGUGAAGAGAAGGCGCUACAUGAGGAUCACCCAUGUCUAUGGGCAG [Ex-6 Malc#17] (Eterna round: R96, puzzle: Exclusion 6) | 331 |  |  |  |
| UUAUACGGUGAGGAUAUCUUCACUAAAGUGUGAAGAGAAGGCGCUACAUGAGGAUCACCCAUGUCUAUGGGCAG [Ex-6 Malc#17] (puzzle: Exclusion 6) |  |  |  | apparent KD of MS2 coat protein [2]: 118 nM; apparent KD of MS2 coat protein [3]: 187 nM; apparent KD of MS2 coat protein [4]: 156 nM |
| UUAUAUAAUGUGAGGAUAUGCUGGUCGAUAGAUCAGCAGAAGGCACAUGAGGAUCACCCAUGUAGUAAAUUUUA [Mat - Exclusion 4 - JL Mod - D13] (puzzle: Brourd's mod of Exclusion 4) |  |  |  | apparent KD of MS2 coat protein [2]: 25.5 nM; apparent KD of MS2 coat protein [3]: 16.4 nM; apparent KD of MS2 coat protein [4]: 16.2 nM |
| UUAUAUAGAGUGAGGAUAUGCUGGUCCUUGGAUCAGCAGAAGGCACAUGAGGAUCACCCAUGUAAUAUAAUAUU [Mat - Exclusion 4 - JL Mod - D38] (puzzle: Brourd's mod of Exclusion 4) |  |  |  | apparent KD of MS2 coat protein [3]: 21.1 nM |
| UUAUAUAGUAUAGGAUAUUAGAGGAGAAUGGUGAUAGAGACAUGAGGAUCACCCAUGUGAGGAGAUAAGAAGGGUAAUAAUUAU [AK ExNG2-V2-3] (Eterna round: R96, puzzle: Exclusion NG 2) | 176 | 326 | 351 |  |
| UUAUUAAGUGUGAGGAUAUGCUGGUCCUUGGAUCAGCAGAAGGCACAUGAGGAUCACCCAUGUAAUAUAUUUAU [JL bmx4 3.09] (puzzle: Brourd's mod of Exclusion 4) |  |  |  | apparent KD of MS2 coat protein [3]: 75.8 nM |
| UUAUUAAUUAAGACUGCAAGAUCACAUGAGGAUCACCCAUGUCAGGAUAUCAGCUCGAUUAGAGCUGAGAAGGGACAAGCAGUC [ExNG3/15-A1] (Eterna round: R96, puzzle: Exclusion NG 3) | 112 | 334 | 99.6 |  |
| UUAUUAAUUAAGACUGCAAGAUCACAUGAGGAUCACCCAUGUCAGGAUAUCAGCUCGUUUAGAGCUGAGAAGGGACAAGCAGUC [ExNG3/15-A2] (Eterna round: R96, puzzle: Exclusion NG 3) | 98 | 337 | 94.4 |  |
| UUAUUAAUUAAUAUUAUAAGAUCACAUGAGGAUCACCCAUGUCAGGAUAUCAGCUCGAUUAGAGCUGAGAAGGGACAAAUAAUA [ExNG3/15-B1] (Eterna round: R96, puzzle: Exclusion NG 3) | 157 | 1450 | 268 |  |
| UUAUUAAUUAAUAUUAUAAGAUCACAUGAGGAUCACCCAUGUCAGGAUAUCAGCUCGUGUAGAGCUGAGAAGGGACAAAUAAUA [ExNG3/15-B3] (Eterna round: R96, puzzle: Exclusion NG 3) | 451 | 576 | 306 |  |
| UUAUUAUAUGAAGGAUAUACUUAACAUGAGGAUCACCCAUGUGGUGUUGUGAGUGAGUGAGUUUAGUAGAAGGUCAAUUAUUUU [JMF's solution 28] (Eterna round: R96, puzzle: Exclusion NG 2) | 287 | 833 | 335 |  |
| UUAUUAUAUGUAGGAUAUGCAUAUUAUUAUUAUGCAGAAGGACAUGAGGAUCACCCAUGUAUAUUAUUAUUAUAUGUUAUAUAU [Title] (Eterna round: R96, puzzle: Exclusion NG 1) | 20.9 |  |  |  |
| UUAUUAUAUGUAGGAUAUGCAUAUUAUUAUUAUGCAGAAGGACAUGAGGAUCACCCAUGUAUAUUGUUAUUAUAUAUUAUAUAU [Title] (Eterna round: R96, puzzle: Exclusion NG 1) | 21.7 |  |  |  |
| UUAUUGGUAGUGAGGAUAUCGGAUAGAUAGAUAUUCGAGAAGGCACAUGAGGAUCACCCAUGUAAGAUUGGAAA [JR_BMEx4_Sub045] (Eterna round: R97, puzzle: Brourd's mod of Exclusion 4) |  | 155 | 38.5 |  |
| UUAUUGGUUGUGAGGAUAUCGGAUAGAUAGAUAUUCGAGAAGGCACAUGAGGAUCACCCAUGUGUGAUUGGAAA [JR_BMEx4_Sub047] (Eterna round: R97, puzzle: Brourd's mod of Exclusion 4) |  | 276 | 27.9 |  |
| UUAUUGUGAGGAUAUAUAUGCAGUAAUCCUUUAAAUUUAUAACUUGAGGAUCACCCAAGUAGAAGGCGCGAUAU [JR_Ex2_Sub055] (Eterna round: R97, puzzle: Exclusion 2) |  | 33 | 24.9 |  |

| Sequence | apparent KD of MS2 coat protein [1] [nM] | apparent KD of MS2 coat protein (input ligand: FMN 200 uM) [nM] | apparent KD of MS2 coat protein (input ligand: none) [nM] | further results |
| --- | --- | --- | --- | --- |
| UUCAGACAUGAGGAUCACCCAUGUGAGGAUAUGAUGCGAUCGUCGAAAGACGAUAGCAUCAGAAGGCACAAAUG [Fiskers Ex 1 - 18] (puzzle: Exclusion 1) |  |  |  | apparent KD of MS2 coat protein [3]: 114 nM |
| UUCAGGCGAGGAUAUCCAUGAAGUAACAUGAGGAUCACCCAUGUUCGCUGUUACUCCGAAGGAGAAGGUGCUCUGG [Eternabot (L2) Solution 25] (Eterna round: R97, puzzle: Exclusion 5) |  | 196 | 100 |  |
| UUCAUGUGAGGAUAUAGUACUCCUUCUAUUAUUUUUGAGUAUUAGAAGGCACAUGAGGAUCACCCAUGUAGUAC [Ex4 - 3 - 39] (puzzle: Exclusion 4) |  |  |  | apparent KD of MS2 coat protein [3]: 24.6 nM |
| UUCAUGUGAGGAUAUUAGUAGUAAAUGAAUAAAAUUAUUACUGAGAAGGUACAUGAGGAUCACCCAUGUUCCUU [Mat - Exclusion 4 - Eli Mod - D21] (Eterna round: R97, puzzle: Exclusion 4) |  | 20.1 | 14.6 |  |
| UUCCUCAUAACAUGAGGAUCACCCAUGUAUUAUUUGAUAACUGAGGAUAUACUAAUAAUGUUUAUGUAGAAGGCAGAUACAGAU [JR_ExcNG3_Sub015] (Eterna round: R96, puzzle: Exclusion NG 3) | 69.1 | 623 | 59.1 |  |
| UUCCUGUCAGGAUAUGACUAGAGGCACGAAAGUGUGUUUAGUUAGAAGGGACAUGAGGAUCACCCAUGUAGUCC [Bring Us a Shrubbery-20] (puzzle: Exclusion 4) |  |  |  | apparent KD of MS2 coat protein [3]: 21.9 nM |
| UUCGCAAAAUUAGGUCCUAACAUGAGGAUCACCCAUGUUCUAGGUAAGUGCCUCCGCCCGCUAACUGUUCGUCUUGU [Eternabot (L1) Solution 36] (Eterna round: R97, puzzle: Sensor, turn-off variant 1) |  | 23.1 | 24.9 |  |
| UUCUGCACGCUGCGGUCCUACAUGAGGAUCACCCAUGUGGUCUGGUGGCGUGGGUCGCCGGACUUGGCUCGUCUUGA [salish99_S_TOV1_R5_044] (Eterna round: R97, puzzle: Sensor, turn-off variant 1) |  | 18.2 | 19.1 |  |
| UUCUGCACGCUGCGGUCCUACAUGAGGAUCACCCAUGUGGUCUGGUGGCGUGGGUCGCCGGACUUGGCUCGUCUUGG [salish99_S_TOV1_R5_049] (Eterna round: R97, puzzle: Sensor, turn-off variant 1) |  | 15.4 | 14.9 |  |
| UUGAAGAUAGGAUAUACGAGGAGAGGAGAGAGAAGGUGAGGACAUGAGGAUCACCCAUGUAGAAGGAUCAGGAG [JR_Exclu2_Sub066] (puzzle: Exclusion 2) |  |  |  | apparent KD of MS2 coat protein [2]: 66.1 nM; apparent KD of MS2 coat protein [3]: 86.9 nM; apparent KD of MS2 coat protein [4]: 84.9 nM |
| UUGAUGUCAUCAGGAUAUAGUAUUUAAGACAUAUCUUCUUUCAAACAUGAGGAUCACCCAUGUCGCUAGAAGGGAUGAAUGAUU [JR_ExcNG2_Sub085] (Eterna round: R96, puzzle: Exclusion NG 2) | 12.1 |  |  |  |
| UUGAUUCAUGUAGGAUAUGCGUGGCGAAGCUAUGCAGAAGGACAUGAGGAUCACCCAUGUGCUUGCGUCCGCGUACGGAUGCUA [JL ENG1 1.23] (Eterna round: R96, puzzle: Exclusion NG 1) | 107 | 154 | 165 |  |
| UUGCAGUCGUCAGGAUAUAGUAUUACGGCCAUUUAUAUUUUCAUACAUGAGGAUCACCCAUGUCGCUAGAAGGGAUUAUCGAUU [salish99_ExNG2_r04_101] (Eterna round: R96, puzzle: Exclusion NG 2) | 40.4 | 49.7 | 53.4 |  |
| UUGCAGUCGUCAGGAUAUAGUAUUACGGCCAUUUAUUUUUUCAUACAUGAGGAUCACCCAUGUCGCUAGAAGGGAUUAUCGAUU [salish99_ExNG2_r04_102] (Eterna round: R96, puzzle: Exclusion NG 2) | 38.9 |  |  |  |
| UUGCGCUGAGGAUAUAUAACCGAUGACAUGAGGAUCACCCAUGUGGAUACAAGGGACUGAAUAGAAGGUAGCCAGA [Eternabot (L1) Solution 69] (Eterna round: R97, puzzle: Exclusion 5) |  | 42.4 | 79.9 |  |
| UUGGUUAUCCAUGGAAGUAACAUGAGGAUCACCCAUGUAUGUCUAGUUUUUUGUUCGUCAUAGGCCUUUUGUUUGGA [JR_SV3TOV1_Sub022] (puzzle: Sensor v3, turn-off variant 1) |  |  |  | apparent KD of MS2 coat protein [2]: 26.8 nM; apparent KD of MS2 coat protein [3]: 27.9 nM; apparent KD of MS2 coat protein [4]: 30.9 nM |
| UUGGUUAUCUAUGGGAGUAACAUGAGGAUCACCCAUGUAUGUCUUGUUUUUUGUUCGUCAUAGGCCUUUUGUUUGGA [JR_SV3TOV1_Sub024] (puzzle: Sensor v3, turn-off variant 1) |  |  |  | apparent KD of MS2 coat protein [2]: 28.6 nM; apparent KD of MS2 coat protein [3]: 35 nM; apparent KD of MS2 coat protein [4]: 29.8 nM |
